Measurements published in publication PMC9585510.

What was measured:
[1] = biological target: Marchantia polymorpha plant cysteine oxidase (MpPCO), with N-terminal His6-tag (Marchantia polymorpha)
[2] = biological target: MpPCOc, Marchantia polymorpha plant cysteine oxidase with the N-terminal His6-tag removed (Marchantia polymorpha)

KM for the peptide substrate in steady-state kinetics of Nt-Cys oxidation (LC-MS; atmospheric O2, 25 °C, 50 mM bis-tris propane, 50 mM NaCl, 1 mM TCEP, pH 8.0; fitted with substrate inhibition) [1] [μM] | KM for the peptide substrate in steady-state kinetics of Nt-Cys oxidation (LC-MS; atmospheric O2, 25 °C, 50 mM bis-tris propane, 50 mM NaCl, 1 mM TCEP, pH 8.0) [2] [μM] | Molecule
11 |  | AtRAP2(2-15), 14-mer peptide representing the N-terminus of the A. thaliana ERF-VIIs RAP2.2 and RAP2.12
 | 509 | CRMNKRLGKGETGL
